Test results taken from the DeepSol protein solubility set.

Test: soluble on expression in E. coli; label from the status in PepcDB or PDB records

Sequence: MAHHHHHHMDPLAGLTTGSRNVIDDFFRWSRLSLDKFKRDLTVEASAFQAGNLWREQYTKAEVAQMLNGQLALMLGVVDTQMEGTTAASAELMRAVLREADRQRVTLDIDVKSVLNNAGGVNAMGEHGRQLMSGPTGRLAPLTVEEASGEAARQLAEANAEVKRLQAKLQQVTDAYTQVMRGRSSDTENLLSMQDAMNDKERLAAELARRCQGQDPSLAATVQELRAEVAEAKRELASRLHQSTQYQQVKHLLAQRNEQLKMMRERLAAYDPSFARYGDDINAEDD
- soluble on expression in E. coli: soluble

Sequence: MGSDKIHHHHHHDFEELNTNPFEMTDEMGIRDGVAVGGAVMAMQRAVITVGTQADDTEAINQYQVAYNLSADSWSGFFGQNNNWYSGSNNTTYYLQDNWVAATYTNSYTTLLSSWKKIKQESEKNETPEIFALAQILKISAWHKTLESFGPIPYTHAGEPALVIPFDSEQVAFNAMFADLTAAIEALTVRAEQGATIVADYDAVYAGDTRKWVKYANSLMLRLAMRISYADETTAQKYARQALNHPFGVMTSKSDEAQMSTGAGMVFRNNIDWLANQYNECRMGSSMFSYLLGYQDPRLSAYFEASPSAYAVAAFDGKNYQAVPPGNANQQNTIYTDFSKPNITSNTPTYWMRASEVYFLRAEAALRWGSEFGDAEALYEQGVATSFDENGISSSVDDYLAFGLTPIAHNMRASYYSYNAAAPTTATPAFSGGTEQKLEKIMIQKWIALYPNGHEAWTEWRRTGYPKLNQVQTNRGQGVTREGGIRRMVYPVSFYQSAEDRANYEEALKLLGGLDKDKATTQLWWDCKNKIY
- soluble on expression in E. coli: not soluble

Sequence: MGSDKIHHHHHHLRPDLEHYYLIDQYLENKLTGQELAAFEQQLMQDKAFANEVQEQRMLNNLILEAELKSVRSQIEKDLLNMQTPSFFRMHWQWISAGALCLLGSLFFMLPGKKDIQTVSLQKSAASHIEKENNPDIAPVENTTQKTATALNLPAKTDISDIVTRTQATDTAQAGSLVIAGTPVIVPVNTKTEPALETTAGEENKKTDCSLTKITSVITTENSCMNTETGSIHIDKISGGIAPYTYTLNNKKIKEKNVSALGAGIYEVKISDRNGCLSEQKISILEKNCTPAIQQGTKFNINPMLGETCSIAFDTDKKGSLTIYNRSGKIVYRVTNPSLDYIEWNGSDGTGALAEAGLYVYLIDYTDGTKVTGEVTITR
- soluble on expression in E. coli: not soluble

Sequence: MNRSTISPVEARQQFRAGLIQPTSGWSAGFAQANLISMPQDLAYDFLLFAQRNPKPCPILEVLNAGETFGGIFGSNATEADIRTDAPQYRIYAHGELIDSPASAVDYWRDDLVSFIIGCSFTFEHPMVQAGVPVRHLEAGRNVPMYETSLACRPAGSLSGNLVVSLRMIPASQVADAVRITSRYPAVHGAPVHIGDPSLIGIDDINNPDFGDAPLSEPSDVPVFWACGVTPQAMVMSSKPPLAITHAPGHMLITDAPDLGFQVPLEHHHHHH
- soluble on expression in E. coli: not soluble

Sequence: MARFSSVLIYDGECPYCSVAAKALEQVDDIGAISWYDESAQSFLTAQFDEPPFAMVLVDRPAQQVYAGRAAAEELAGRAGLPDLVGSLVRDNYEKIAHVVGLASGRGLEHHHHHH
- soluble on expression in E. coli: not soluble

Sequence: ADQLLRKKRRIFIHSVGAGTINALLDCLLEDEVISQEDMNKVRDENDTVMDKARVLIDLVTGKGPKSCCKFIKHLCEEDPQLASKMGLH
- soluble on expression in E. coli: soluble

Sequence: MKIGFLGFGKSNRSLLKYLLNHQEAKFFVSEAKTLDGETKKFLEEHSVEYEEGGHTEKLLDCDVVYVSPGIKPDTSMIELLSSRGVKLSTELQFFLDNVDPKKVVGITGTDGKSTATALMYHVLSGRGFKTFLGGNFGTPAVEALEGEYDYYVLEMSSFQLFWSERPYLSNFLVLNISEDHLDWHSSFKEYVDSKLKPAFLQTEGDLFVYNKHIERLRNLEGVRSRKIPFWTDENFATEKELIVRGKKYTLPGNYPYQMRENILAVSVLYMEMFNELESFLELLRDFKPLPHRMEYLGQIDGRHFYNDSKATSTHAVLGALSNFDKVVLIMCGIGKKENYSLFVEKASPKLKHLIMFGEISKELAPFVGKIPHSIVENMEEAFEKAMEVSEKGDVILLSPGGASFDMYENYAKRGEHFREIFKRHGGDEV
- soluble on expression in E. coli: soluble

Sequence: MSLSPVPPPLVRVAPSLFLGSARAAGAEEQLARAGVTLCVNVSRQQPGPRAPGVAELRVPVFDDPAEDLLAHLEPTCAAMEAAVRAGGACLVYCKNGRSRSAAVCTAYLMRHRGLSLAKAFQVGGPLGGRCFERGVSSGDEFSGRGRLRDWDRHFREGRVSLMVKSARPVAEPNPGFWSQLQKYEEALQAQSEGHHHHHH
- soluble on expression in E. coli: not soluble

Sequence: MVKMLTMDKILSKKIKVNWLGGVFWLLPNLLDLFSASKRKASVRPYQSLLELVQENFLNRYDLVHFSFNGDHDFFHFNDLQAIRSFNFTIEEEQLGAMQPDEVLLFEPVDRVTVELDQKGLSLIHSGKAFCASANYFKHWLKRVPQQDKVTLVWRKSGFELKQ
- soluble on expression in E. coli: soluble

Sequence: MLMFTEKEFAAFEVAGLDERMAVIRAQIQPIFQELDTYFAEQLAPELGTELFVHIAQHRRRTVYPPENTWSALSPNKRGYKMQPHFQLGIWGDYVFMWLSFIDNPKNEKQIAQAFLENQQLFQALPEDTYVSLDHTVPQITPLPETDLEKALTRFRDVKKGEFEIGRIIPKDSDLWQNPEKARAYMLATYQQLLPLYQLAVAQ
- soluble on expression in E. coli: not soluble

Sequence: MGSDKIHHHHHHMVNPKLPVIWYGGDYYPEQWDEETFERDIRMFKEAGINVVTIGVFSWSLIQPDENTYDFSFFEKVMDRLYKEGIYVCLATPTSAPPHWMTQKYPEILFTDVNGVKREKGGRQNFCPNSEKYRYFARNIAEKLAEHFKDHPALVLWHVNNEYLNYCYCDICRGKFQNWLKEKYGTLDELNRRWNTRFWSQTFTAWEEIPVPTTRSVLVWRKDRYQSVLPELYLDYRRFMTQSMLECFLEEYRAIKKHTPDIPVTTNLIAATFKEWNYFEWAKHMDVAAWDNYPGYKEDFSVISLRHSLIRCLKEGKPFVLMEQSPSQACWRWYNPQKRPGEMRLWSYHALAHGAETLMFFQLRQSKGGVEKFHGAVITHVDSPNTRVFQEVKRVGEEIKSLSDILDARVVSQTALLFDWESWWAMEDTLTPSVDFRYLNEVQKYFKALVKTGLGVDVVGKDQNFERYRVLVAPVLYMVGKELAQKLKDYVSNGGILILTTMSGIVDEDDQVVLGGYPGYLRDLMGGYVEEIDALPPEEKNEILMFGKRYECSLVFDYIKTTTAEVLGRFGRDYYMNEPAVLRNNYGKGWVYYVGSSTSFDLVWDLVKFMEREHNLRAEIAPPDDVEVIKKIKGEKIFYFLFNHSHELQIVDLPEGMFRDLIKGNLYEKKVKLQPLDVLILLKE
- soluble on expression in E. coli: not soluble

Sequence: MYSKIEGSIITARFDKETDFFTDLVDLCNKYEVKSGTVLWAIGMLKEFQIGYWNGNDYEKETFRERLELVSLHGSIAENDPRFHIHAAGARGNHGIVGGHLFSAKVDPLVEIQIMKITGFSMSRELDNSDGLYKLVIKLEHHHHHH
- soluble on expression in E. coli: not soluble

Sequence: MSNPLAVDVPTFTKLHNVAQWLSQQPPSPRLFDQKENGFSQNFQPFLKTVNSCTIPDDLHEEMMRLKRKENAFKTALCKTFQLTRACSYGEQCKFAHSVEELQLKQKNRGVNHPKYKTVLCDNFSRTGHCKYGTKCQFIHRAVEPTPAQNPLMPQFSSWFAPSSGLSREFLDNFGASASSSSTDFS
- soluble on expression in E. coli: not soluble

Sequence: MGSDKIHHHHHHMCSPTNFLYEPFSSDAVTQNYDQNLKCTKCGAYYSMACSLREQNVWTCLFCNQSNSNAELPLVPSNTYTLTSAKKEILSRRTIMIIDAICDPHELNYLVSILCNNYITRQQEPLSIITIQQSGHVILHNAVNHRRDAVFSINEFMTKYNLDKLNASYFEKKISEINQESYWFDKSTQGSLRKLLREICKIANKVNISSKRDKRCTGLALFVSSVLASQCSLSAYCHIVSFLNGPCTKGGGKVMSRERGESMRQNHHFESKSSQLQLSKSPTKFYKKMLEKFANQSLIYEFFIASLDQIGILEMSPLITSSMAVSQFDSFNDERFAMSFQKYLNLRDHNAIYNCHSKIMTAKNAIVVKDFPKYSLNPKNLSLPLEISLGHNSAEAPIQFQTTFENQTEKYIRIETLLLPKANRSFGAQNEIVFSMKKIASRIIDSFAYSSKHTKELMKQLFLLPNQIRGKDVDMVNLIQWCYHIYRSPILSVRNTSPDERYLFLHRIINASKDTCLSLCKPFIWSYSDLKHDWIVLDVPLTRAQILQDDKTTICVDGGSYLVLRRGKLLEKEGRELCCKLLNDLQRFPQPLYVETKTGGSQDRFLKSKIIPLDITDKETLGTEDMTFNEYFNLFTDLSGSK
- soluble on expression in E. coli: not soluble

Sequence: MGSDKIHHHHHHSCKQAPDAGVKSSYAVMQIEPTDKELSSSYSATIRGRQDIDIYPQVSGTIEKLCVTEGQKVRRGQLLFIIDQVPYRAALKTATANVEAARAATSTAELTYKSNKELYAQKVVSEFSLKTAENSYLTAKAQLAQAEAQEISARNNLSYTEVKSPSDGVVGALPYRAGALVSANIPYPLTTVSDNSDMYVYFSMTENQLLALTRQYGDMDEALKNMPEVELILNDNSVYQKKGTIESISGVIDRQTGTVVARVVFPNESRLLHSGASGTVVVPSIYKNCIAIPQTATVRMQDKTIVYKVVDGKAVSTLITVAGINDGREYVVLDGLKAGDEIVSEGAGLVREGTQVK
- soluble on expression in E. coli: not soluble

Sequence: MSLRPKMADIARMAGVDISTVSRALAGSPRVTKETRALIDQIVRDTGYVLNEAARNLRDGRANQVLVIVSDIAAPFYSDVVQGIVETLAERGINVLLGVTLRQAKREAKLGKQLLTGVVDGIITVTGSVPKPILNMQGFDRKVVAISRPVPHEGVTCVTIDNYAAAKEVMAHLYAMGHRRIVHIGGPNHSETYRDRSAAYVDFMRDHGLVELTNVRSTDSFNDDAESGFEIMKSMLNDGSRPTAVFCATDELAISAMAAARQANRNIPGDVSFFGFDDLKLAGLMHPPLSTVSVPRFEMGRRGAEELFRQIYKGEMPSTKIVLEHRLVLRDSVAKEGHHHHHH
- soluble on expression in E. coli: not soluble

Sequence: MSLTTALAPGAADALLFDLGRVVIDYDLRRTLKAWAVELGSDPHALMAKLAQNDTFHRYETGHVTDAEFFAAVRTALGLTLTDAQLREGWNAIFIGEMPGIAPLLDRAAKQLPLYALSNTNDSHIAHFSEHYAELLVHFRELFLSSRIGMRKPNGETYDFVVKAIGIAPQRIVFFDDLAENVEAARERGLYAVQVHSSDDVARTLDQLGLEGHHHHHH
- soluble on expression in E. coli: soluble

Sequence: MGSDKIHHHHHHAMSSCGSTKEAASLSSLNGEWNIIEVNGSAIVPAENQELPFIGFDTATGKVYGNSGCNRMMGSIDLNSKPGTIDMSRLGSTRMACPDMTTEQNVLNALGQVKSYKKLGKHNMALCNASNRPVVVLQKKASDVKLSALNGEWKIEEVNGEAIPSGMEKQPFINFDVRKKSIHGNAGCNLINGGFETDKENPRSISFPNVISTMMACPDMEVEGKVMKAINEVKSFDVLSGGGIGFYSADGTLVMVLVKK
- soluble on expression in E. coli: not soluble

Sequence: MNGMCWIASYPKAGGHWLRCMLTSYVTGEPVETWPGIQAGVPHLEGLLRDGEAPSADPDEQVLLATHFTADRPVLRFYRESTAKVVCLIRNPRDAMLSLMRMKGIPPEDVEACRKIAETFIADEGFSSVRIWAGEGSWPENIRSWTDSVHESFPNAAVLAVRYEDLRKDPEGELWKVVDFLELGGRDGVADAVANCTLERMREMEERSKLLGLETTGLMTRGGKQLPFVGKGGQRKSLKFMGDDIEKAYADLLHGETDFAHYARLYGYAE
- soluble on expression in E. coli: soluble

Sequence: GPGSMTSEEAVECTDALELVRCPSSNARVVPNRFDEEYIRGRLQEAEKIFEKAKTDVSRGLSKCEDWLGACEAFNEAGGLFASCGHPAEAARAFFHASIITRAFKDEEETTTALSLAVENMQLVEPLLAVNLMQKISETLKKGGFFFQAARCKRDSALLLEDRLGEPERAIELYREAIELYGNRSFMSSFSRGCMERITTLTVELKKYTEASKLFVEETAYAPRGRPKTRQFFLSLLCMLAEGFGDNDRYFDSLYYARKRFHALQEEERDFQHGKENRLVRKIIEANDNGSLTAFDTAVYEYRSSSTYVPDAVFENLIERCRKNLYEHLEQYI
- soluble on expression in E. coli: soluble

Sequence: MKDILGKTFECSCGKTHEVPDIEILETSIREAPDVFSDAFFIADLNTASLVDLPGKRSFVFNERRPLATMENV
- soluble on expression in E. coli: not soluble
